Test results reported in the Human Domainome abundance scans (Beltran et al. 2025).

B1: Calcium-binding protein 2, residues 155 to 219; numbered along this chain, Q9NPB3 (parent)
chain: RELRDAFREFDTNGDGRISVGELRAALKALLGERLSQREVDEILQDVDLNGDGLVDFEEFVRMMS

Variants of: B1
Assay: abundance fitness (aPCA) (normalised: wild type 0, dead -1); higher = more abundant; growth selection in yeast, the domain comes from the species named
Settings: Homo sapiens

Abundance fitness, by site and new letter:
R17: M -0.099 | L 0.045 | S -0.087 | N -0.14 | Q -0.193 | F -0.021 | C 0.141 | I -0.141 | G 0.045 | A 0.001 | K 0.017 | E -0.295 | Y -0.02 | V -0.158 | W -0.159 | P -0.701 | T -0.217
E9: Y -0.244 | S -0.133 | H -0.429 | D 0.003 | M -0.135 | A -0.189 | P -0.451 | Q -0.032 | V -0.03 | F -0.294 | T 0.039 | W -0.416 | L -0.201 | R 0.085 | G -0.016
D11: A -0.677 | W -0.631 | T -0.769 | Q -0.434 | V -1.02 | P -0.992 | K -1.16 | M -1.17 | Y -0.651 | H -1.17 | L -0.937 | R -1.18 | E -0.972 | S -0.633 | C -0.546
A25: E 0.096 | Q -0.068 | D 0.045 | W -0.189 | H -0.012 | C 0.177 | G 0.01 | M 0.019 | N -0.109 | R 0.051 | S 0.084 | P -0.022 | T -0.035 | Y -0.159 | F -0.093 | L 0.139 | V -0.035
L27: T 0.064 | C 0.014 | I 0.102 | Q -0.095 | E -0.311 | A 0.122 | R -0.192 | V 0.092 | Y -0.136 | F 0.077 | M -0.025 | N 0.088 | K -0.006 | W -0.137 | D -0.464 | G 0.165 | P -0.495 | H -0.091 | S 0.161
G21: W -0.423 | Q -0.001 | K -0.193 | P 0.044 | V -0.061 | S -0.026 | F 0.102 | D 0.141 | C -0.244 | R -0.196 | T 0.01 | L -0.049 | H -0.328 | A 0 | N -0.064 | I -0.134 | M -0.09
G14: K 0.003 | M -0.308 | R -0.018 | V -0.672 | D -0.188 | C -0.264 | L -0.226 | Q 0.023 | T -0.547 | S -0.198 | E -0.165 | P -0.621 | W -0.718
I18: Y -0.592 | K -0.691 | L 0.114 | N -1.01 | G -0.97 | E -1.01 | P -1.15 | D -0.965 | R -0.808 | V -0.045 | H -0.917 | T -0.763 | F -0.747 | A -0.736 | M 0.081 | C -0.311
A26: P -0.251 | T -0.268 | S -0.214 | K -0.587 | R -0.371 | N -0.266 | D -0.379 | C 0.215 | M 0.111 | G 0.05 | L 0.073 | E -0.86 | W -0.454 | V -0.095 | F -0.041 | H -0.228 | Y -0.17
L23: V -0.133 | G -0.193 | M 0.025 | Q -0.468 | A 0.118 | T -0.023 | Y -0.249 | S -0.238 | C -0.139 | P -0.592 | N -0.213 | F -0.235 | E -0.663
E22: D -0.49 | T -0.486 | W -0.837 | C -0.469 | V -0.489 | Q -0.357 | I -0.729 | N -0.726 | A -0.342 | Y -0.814 | G 0.093 | M -0.535 | R -0.549 | P -1.05
T12: G -0.04 | D -0.42 | K -0.03 | W -0.538 | R -0.201 | E -0.087 | P -0.695 | H 0.039 | M -0.349 | C -0.148 | N 0.007 | F -0.493 | V -0.351 | Q -0.148 | L -0.279 | S -0.035
A29: K 0.066 | M -0.049 | H -0.149 | G -0.135 | F -0.208 | C -0.31 | L -0.051 | I -0.204 | D 0.063 | E -0.096
S19: L -0.532 | M -0.285 | I -0.462 | E -0.169 | Q -0.584 | A -0.372 | F -0.462 | R -0.687 | D -0.059 | N 0.049 | K -0.529 | V -0.517 | T 0.227 | H -0.459 | P -0.43 | G -0.045 | W -0.58 | Y -0.822
A6: T 0.173 | V 0.026 | N 0.042 | G -0.328 | S -0.011 | E -0.076 | L -0.008 | K 0.157 | R 0.089 | P -0.952 | W -0.111 | H -0.479 | D -0.709
R8: K -0.068 | I -0.156 | N -0.023 | Q -0.1 | E -0.004 | A -0.04 | T 0.031 | D 0.045 | Y -0.153 | P -0.573 | M -0.043 | C -0.141 | G -0.238 | S 0.01 | V -0.162
F10: L -0.449 | G -0.417 | V -0.048 | M -0.426 | D -1.13 | C -0.143 | S -0.148 | P -0.864 | H 0.09 | A 0.11 | K -0.155 | R -0.1 | T -0.144 | W -0.076 | Q 0.156 | E -0.445 | I -0.038
K28: D 0.068 | G -0.077 | F -0.277 | Y -0.216 | S -0.017 | L -0.07 | I 0.013 | N -0.133 | C -0.01 | V 0.089 | A 0.127 | M -0.051 | T 0.002
G16: Q -0.223 | M -0.376 | V -1.14 | A -0.332 | W -0.454 | H -0.897 | E -0.1 | R -0.428 | S -0.261 | F -0.992 | P -1.19 | Y -0.743 | I -1.2 | L -0.669 | C -0.527 | D 0.023
N13: Q -0.924 | G -0.693 | D -0.019 | R -0.477 | A -0.537 | H -0.644 | E -0.459 | M -0.797 | K -0.676 | P -0.811 | L -0.974 | S -0.555 | T -0.404 | C -0.489 | Y -1.12 | V -0.668
F7: E -0.841 | Q -0.803 | P -0.997 | I -0.644 | V -0.891 | W -0.142 | Y -0.259 | H -1.18 | G -1.03 | R -0.995 | C -0.422 | T -0.713 | N -1.44 | M -0.33 | K -1.12
V20: M 0.066 | P 0.163 | K -0.639 | L 0.093 | G 0.004 | S -0.164 | H -0.043 | Q -0.005 | N 0.081 | C 0.061 | A -0.317 | T -0.146
